Drawing on article PMC8509576, “Loops around the Heme Pocket Have a Critical Role in the Function and Stability of BsDyP from Bacillus subtilis” (International Journal of Molecular Sciences, 2021), this text covers Km, kcat and kcat/Km for five proteins.

Residue numbers refer to the chain shown, from its start. Names may count otherwise.

Substrate in series [1]: COc1cccc(OC)c1O
The series is described as follows: steady-state kinetics, oxidation followed by absorbance. The format is biochemical, Bacillus subtilis. An excerpt: steady-state kinetics, oxidation followed by absorbance on BsDyP

Substrate in series [2]: CCn1c(=NN=c2sc3cc(S(=O)(=O)O)ccc3n2CC)sc2cc(S(=O)(=O)O)ccc21
As to the kind of experiment: steady-state kinetics, ABTS oxidation. The conditions noted are these: one kcat column shared with H2O2. The format is biochemical, Bacillus subtilis. An excerpt: steady-state kinetics, ABTS oxidation on BsDyP

Setting [3] is: 0.2 mM H2O2, sodium phosphate buffer pH 3.8, 25 °C, apparent, rates per holoprotein.
Setting [4] is: 0.2 mM H2O2, pH 4.2, 25 °C, apparent.
The mark [5] stands for this setting: variant 54D6, 0.6 mM H2O2, sodium phosphate buffer pH 3.8, 25 °C.
[6] abbreviates: variant 54D6, 0.6 mM H2O2, pH 4.2, 25 °C.
Where [7] appears, read: variant 1F9, 0.6 mM H2O2, sodium phosphate buffer pH 3.8, 25 °C.
Where [8] appears, read: variant 1F9, 0.6 mM H2O2, pH 4.2, 25 °C.
Setting [9] is: variant 5G5, 0.6 mM H2O2, sodium phosphate buffer pH 3.8, 25 °C.
The mark [10] stands for this setting: variant 5G5, 0.6 mM H2O2, pH 4.2, 25 °C.
The mark [11] stands for this setting: variant 3G5, 0.6 mM H2O2, sodium phosphate buffer pH 3.8, 25 °C.
Where [12] appears, read: variant 3G5, 0.6 mM H2O2, pH 4.2, 25 °C.

B1: BsDyP (Bacillus subtilis subsp. subtilis str. 168; A45M) (protein)
chain: MKPSKKDEKEEEQIVPFYGKHQAGITTAHQTYVYFAALDVTAKDKSDIITLFRNWTSLTQMLTSGKKMSAEQRNQYLPPQDTGESADLSPSNLTVTFGFGPGFFEKDGKDRFGLKSKKPKHLAALPAMPNDNLDEKQGGGDICIQVCADDEQVAFHALRNLLNQAVGTCEVRFVNKGFLSGGKNGETPRNLFGFKDGTGNQSTKDDTLMNSIVWIQSGEPDWMTGGTYMAFRKIKMFLEVWDRSSLKDQEDTFGRRKSSGAPFGQKKETDPVKLNQIPSNSHVSLAKSTGKQILRRAFSYTEGLDPKTGYMDAGLLFISFQKNPDNQFIPMLKALSAKDALNEYTQTIGSALYACPGGCKKGEYIAQRLLES
notes: Tat signal peptide (residues 1-45) deleted, A45M new start codon, plasmid pVB4 (pET-21a), no tag told; expressed in E. coli Tuner(DE3); called wild-type BsDyP; precursor 416 residues
Consider B1, for which, in series [1] (setting [3]), the Michaelis constant (Km) stood at 60 ± 10 µM, the kcat worked out at 0.42 ± 0.03 s⁻¹ and the kcat/Km was determined as 7000 ± 1000 M⁻¹ s⁻¹. Further, in series [2] (setting [4]), the Michaelis-Menten constant (Km) came to 420 ± 30 µM, the kcat is 14.2 ± 1.0 s⁻¹ and the kcat/Km came out at 36000 ± 3000 M⁻¹ s⁻¹.

B2: BsDyP (Bacillus subtilis subsp. subtilis str. 168; A45M/K317E/S325P) (protein)
chain: B1 chain with K273E, S281P
notes: as for B1
Take B2: in series [1] (setting [5]), the Km came to 600 ± 10 µM, the kcat came out at 1 ± 0.1 s⁻¹ and the catalytic efficiency (kcat/Km) stood at 1600 ± 500 M⁻¹ s⁻¹. Also, in series [2] (setting [6]), the Michaelis-Menten constant (Km) stood at 800 ± 140 µM, the kcat is 47.7 ± 2.9 s⁻¹ and the specificity constant (kcat/Km) worked out at 60000 ± 11000 M⁻¹ s⁻¹.

B3: BsDyP (Bacillus subtilis subsp. subtilis str. 168; A45M/S325P) (protein)
chain: B1 chain with S281P
notes: as for B1
In the case of B3, in series [1] (setting [7]), the Michaelis-Menten constant (Km) was found to be 150 ± 10 µM, the turnover number (kcat) amounted to 0.83 ± 0.04 s⁻¹ and the kcat/Km is 5500 ± 400 M⁻¹ s⁻¹. Besides, in series [2] (setting [8]), the Km is 890 ± 100 µM, the turnover number (kcat) is 50.4 ± 1.4 s⁻¹ and the kcat/Km was found to be 58000 ± 7000 M⁻¹ s⁻¹.

B4: BsDyP (Bacillus subtilis subsp. subtilis str. 168; A330V/A45M/K317E/S325P) (protein)
chain: B1 chain with K273E, S281P, A286V
notes: as for B1
B4: in series [1] (setting [9]), the Michaelis constant (Km) turned out to be 700 ± 100 µM, the kcat worked out at 2.8 ± 0.1 s⁻¹ and the specificity constant (kcat/Km) was found to be 3800 ± 200 M⁻¹ s⁻¹. Also, in series [2] (setting [10]), the Km was 1290 ± 190 µM, the kcat amounted to 56.1 ± 1.9 s⁻¹ and the kcat/Km was determined as 42000 ± 6000 M⁻¹ s⁻¹.

B5: BsDyP (Bacillus subtilis subsp. subtilis str. 168; A330V/A45M/L166Q/T296S/V284A) (protein)
chain: B1 chain with L122Q, V240A, T252S, A286V
notes: as for B1
For the protein B5, in series [1] (setting [11]), the Km was 90 ± 10 µM, the kcat was determined as 0.8 ± 0.1 s⁻¹ and the specificity constant (kcat/Km) amounted to 9000 ± 1000 M⁻¹ s⁻¹. Besides, in series [2] (setting [12]), the Michaelis-Menten constant (Km) was 1370 ± 250 µM, the kcat was 28.1 ± 2.1 s⁻¹ and the specificity constant (kcat/Km) came to 25000 ± 5000 M⁻¹ s⁻¹.
